Measured values taken from patent US20170233480A1 (DEVELOPMENT CENTER FOR BIOTECHNOLOGY, published 2017).

T1: human VEGFR-3 (human, UniProt P35916 25-775, limits assumed)
T1 construct: also called flt-4
T1 sequence (looked up): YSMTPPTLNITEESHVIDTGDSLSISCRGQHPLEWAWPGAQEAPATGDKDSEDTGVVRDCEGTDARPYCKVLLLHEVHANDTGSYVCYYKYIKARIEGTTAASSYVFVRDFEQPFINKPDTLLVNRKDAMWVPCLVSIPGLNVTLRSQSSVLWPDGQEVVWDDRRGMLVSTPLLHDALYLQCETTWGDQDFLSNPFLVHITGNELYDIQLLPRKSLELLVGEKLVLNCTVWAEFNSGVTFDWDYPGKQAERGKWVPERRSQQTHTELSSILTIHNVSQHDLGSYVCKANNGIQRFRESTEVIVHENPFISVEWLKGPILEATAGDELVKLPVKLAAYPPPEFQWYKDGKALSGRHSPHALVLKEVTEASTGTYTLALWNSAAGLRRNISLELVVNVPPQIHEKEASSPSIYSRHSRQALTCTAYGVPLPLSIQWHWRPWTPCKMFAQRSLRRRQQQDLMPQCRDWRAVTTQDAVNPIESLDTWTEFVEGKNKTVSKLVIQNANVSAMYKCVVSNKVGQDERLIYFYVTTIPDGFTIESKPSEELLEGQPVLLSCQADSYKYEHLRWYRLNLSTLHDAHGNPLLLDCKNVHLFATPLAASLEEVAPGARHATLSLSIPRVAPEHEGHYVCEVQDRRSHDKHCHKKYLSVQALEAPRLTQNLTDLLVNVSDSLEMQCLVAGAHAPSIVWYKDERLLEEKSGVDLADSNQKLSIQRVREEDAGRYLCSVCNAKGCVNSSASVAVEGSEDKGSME


Legend:
human VEGFR-3 = molecular target: T1, human VEGFR-3; assay: ELISA, plate coated with hVEGFR3 (0.1 µg/mL), antibody titration, OD450-650
Protocol: (§1) An ELSA plate was coated with 100 μL per well of human VEGFR-2, mouse VEGFR2, human VEGFR1 or human VEGFR3 overnight at 4° C., and then rinsed 3 times with PBS and blocked with 300 μL per well of 5% MPBS for 2 hr at 37° C. The wells were rinsed 3 times with PBS, and 100 μL of anti-VEGFR2 antibody, 2 fold serial dilutions, was added and incubated for 90 min at 37° C. The test solution was discarded and washed 3 times with PBS. Appropriate dilution of HRP-anti-Human IgG antibody in 5% MPBS (1:10000) was added and incubated for 60 min at 37° C., and the wells were washed 3 times with PBS. The wells were developed with 100 μL of substrate solution TMB and the reactions were terminated by adding 50 μL of 1 M sulfuric acid. The color turned yellow and the OD at 650 nm and at 450 nm was assayed.

mouse VEGFR-2 = mouse VEGFR-2 (mouse, UniProt P35918 20-762); assay: ELISA, plate coated with mouse VEGFR-2, HRP-anti-human IgG, OD450-650; bar chart of two runs (1st, 2nd); antibody concentration not given
mouse VEGFR-2, sequence (P35918 20-762 limits assumed): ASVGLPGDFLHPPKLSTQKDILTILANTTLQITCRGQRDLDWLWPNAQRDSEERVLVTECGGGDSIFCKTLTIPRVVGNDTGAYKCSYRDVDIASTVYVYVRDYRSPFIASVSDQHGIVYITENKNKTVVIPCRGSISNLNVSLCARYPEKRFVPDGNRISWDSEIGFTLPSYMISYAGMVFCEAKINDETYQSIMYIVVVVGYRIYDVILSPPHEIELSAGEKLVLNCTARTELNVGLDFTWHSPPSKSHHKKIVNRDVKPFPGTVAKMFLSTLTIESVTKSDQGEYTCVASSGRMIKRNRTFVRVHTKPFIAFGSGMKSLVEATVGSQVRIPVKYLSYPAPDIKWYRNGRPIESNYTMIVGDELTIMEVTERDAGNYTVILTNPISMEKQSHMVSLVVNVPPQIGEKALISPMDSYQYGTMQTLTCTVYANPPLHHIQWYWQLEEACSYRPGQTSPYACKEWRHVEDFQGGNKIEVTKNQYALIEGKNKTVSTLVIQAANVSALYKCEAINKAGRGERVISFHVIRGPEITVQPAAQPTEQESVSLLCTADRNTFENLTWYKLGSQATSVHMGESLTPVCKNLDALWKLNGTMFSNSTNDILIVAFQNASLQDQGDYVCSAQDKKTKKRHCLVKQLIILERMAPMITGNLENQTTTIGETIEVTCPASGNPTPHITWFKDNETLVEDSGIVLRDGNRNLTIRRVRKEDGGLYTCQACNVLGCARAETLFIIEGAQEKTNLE
Protocol: as §1

human VEGFR-1 = molecular target: T2, human VEGFR-1 (human, UniProt P17948 27-758, limits assumed); assay: ELISA, plate coated with hVEGFR1 (0.1 µg/mL), antibody titration, OD450-650
T2 construct: also called flt-1
T2 sequence (P17948 27-758 limits assumed): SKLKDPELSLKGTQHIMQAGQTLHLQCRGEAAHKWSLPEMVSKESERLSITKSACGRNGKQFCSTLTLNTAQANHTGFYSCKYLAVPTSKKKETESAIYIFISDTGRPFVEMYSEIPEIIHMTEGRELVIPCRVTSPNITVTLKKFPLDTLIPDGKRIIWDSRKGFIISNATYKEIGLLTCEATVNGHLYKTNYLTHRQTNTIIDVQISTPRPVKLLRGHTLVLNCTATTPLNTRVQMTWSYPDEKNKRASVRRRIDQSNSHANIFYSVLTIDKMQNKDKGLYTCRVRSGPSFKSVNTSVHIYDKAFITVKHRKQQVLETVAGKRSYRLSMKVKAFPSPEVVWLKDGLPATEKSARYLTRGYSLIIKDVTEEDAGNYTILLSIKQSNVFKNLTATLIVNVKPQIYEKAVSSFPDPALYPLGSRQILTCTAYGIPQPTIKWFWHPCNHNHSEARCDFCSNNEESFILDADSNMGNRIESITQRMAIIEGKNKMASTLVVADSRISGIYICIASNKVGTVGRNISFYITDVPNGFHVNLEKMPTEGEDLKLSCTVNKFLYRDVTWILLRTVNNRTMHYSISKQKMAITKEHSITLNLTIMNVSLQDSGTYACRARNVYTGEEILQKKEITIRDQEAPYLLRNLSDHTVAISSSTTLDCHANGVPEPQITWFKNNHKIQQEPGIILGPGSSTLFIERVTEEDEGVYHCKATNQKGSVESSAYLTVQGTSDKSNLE
Protocol: as §1

[1] = molecular target: T3, human VEGFR-2 (domains 1 to 7) (human, UniProt P35968 20-764); assay: kinetic analysis with Rmax in RU, VEGFR-2 (domains 1 to 7) as analyte; method not named
T3 construct: The immunogen was VEGFR2-Fc-His and panning used VEGFR2-His; also called R2 D1-7; KDR
T3 sequence (P35968 20-764 Q472H limits assumed): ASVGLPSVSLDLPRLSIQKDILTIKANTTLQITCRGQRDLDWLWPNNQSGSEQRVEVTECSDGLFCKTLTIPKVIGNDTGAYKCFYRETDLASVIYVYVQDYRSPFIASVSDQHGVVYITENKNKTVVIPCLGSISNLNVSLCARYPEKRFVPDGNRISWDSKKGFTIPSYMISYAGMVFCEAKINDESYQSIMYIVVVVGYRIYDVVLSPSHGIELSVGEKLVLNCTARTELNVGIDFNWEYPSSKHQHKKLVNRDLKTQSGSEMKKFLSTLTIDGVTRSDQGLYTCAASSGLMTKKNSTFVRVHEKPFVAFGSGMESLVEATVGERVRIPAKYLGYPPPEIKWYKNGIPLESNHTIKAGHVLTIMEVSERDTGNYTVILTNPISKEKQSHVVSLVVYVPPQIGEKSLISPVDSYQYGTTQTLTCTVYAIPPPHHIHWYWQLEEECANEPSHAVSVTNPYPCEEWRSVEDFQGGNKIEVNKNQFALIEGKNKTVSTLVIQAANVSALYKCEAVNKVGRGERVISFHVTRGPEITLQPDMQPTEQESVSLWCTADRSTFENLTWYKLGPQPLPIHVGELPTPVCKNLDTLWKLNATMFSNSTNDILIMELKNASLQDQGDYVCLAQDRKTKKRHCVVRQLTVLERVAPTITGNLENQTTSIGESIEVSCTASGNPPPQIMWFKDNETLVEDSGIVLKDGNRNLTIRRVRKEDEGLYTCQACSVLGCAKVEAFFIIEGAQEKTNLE

[2] = molecular target: T3, human VEGFR-2 (domains 1 to 7); assay: ELISA on VEGFR-2 D1-7 and point mutants mut.1 to mut.10, antibody titration 6.86E-05 to 0.15 ug/ml, OD450
[3] = molecular target: T3, human VEGFR-2 (domains 1 to 7); assay: ELISA and BIAcore; no numbers given

Row | Binder | binding result (human VEGFR-3) | binding result (mouse VEGFR-2) | binding result (human VEGFR-1) | Kd [1] [nM] | EC50 (read off the curve) [2] [ng/mL] | binding result [3]
1 | 322A6 (antibody, V domains shown, Expressed as a full-length antibody in FreeStyle 293 cells from mouse-derived VH and VL; It was detected with anti-human IgG and anti-human kappa; also called 322A6 (45); c45) VH: EVQLQQSGPQLVRPGASAKISCKASGYAFTTYWMHWVKQRPGQGLEWIGMIDFSDSETKLNQRFKGKATLTVDKSSSTAYMQLSSPTSEDSAVYYCARDVRGNFDVWGAGTTVTVSS VL: DIVLTQSPASLAVSLGQRATISCRASKSVSTSGYSYMHWYQQKPGQPPKLLIYLASNLESGVPARFSGSGSGTDFTLNIHPVEEEDAATYYCQHSRELPWTFGGGTKLEIKR | no binding (tested: about 1.3e-7 M) | binds | no binding (tested: 20 µg/mL (about 1.3e-7 M)) | 0.673 | ~5 | 
2 | 12A6 (antibody, V domains shown, Expressed as a full-length antibody in FreeStyle 293 cells and detected with anti-human IgG) VH: QVQLQQSGPELVKPGASVKVSCKASGYSFTDYSMYWVKQSHGKSLEWIGYIDPYNDDTSYKQKFKGKATLTVDKSSSTAFMHLNSLTSEDSAVYYCAKGYADAMDYWGQGTSVTVSS VL: DIQMIQSPSSLSASLGDTITITCHASQNINVWLSWYQQKPGNIPKLLIYKASNLHTGVPSRFSGSGSGTGFTLTISSLQPEDIATYYCQQGQSYPLTFGAGTKLELKR |  | no binding |  | 4.6 |  | 
3 | Hu322B1HdH (antibody, V domains shown, Humanized 322A6; The expression vector encodes the human kappa light-chain and human IgG1 C regions; also called 322A6(HuB1-Hd); combination clone of heavy chain (HuB1) and light chain (Hd) with 7 amino acid back mutation (7+0)) VH: QVQLVQSGAEVKKPGASVKVSCKASGYAFTTYWMHWVRQAPGQGLEWIGMIDFSDSETKLNQRFKGKATLTVDKSTSTAYMELSSLRSEDTAVYYCARDVRGNFDVWGQGTLVTVSS VL: DIQMTQSPSSLSASVGDRVTITCRASKSVSTSGYSYMHWYQQKPGKAPKLLIYLASNLESGVPSRFSGSGSGTDFTLTISSLQPEDFATYYCQHSRELPWTFGQGTKVEIKR |  |  |  |  |  | binds
